From publication PMC9117659, “Phase transition and remodeling complex assembly are important for SS18-SSX oncogenic activity in synovial sarcomas” (Nature Communications, 2022)

Legend:
Conditions in all cases: both partners purified
[1] = biological target: T1, Human SS18 (residues 1-387), purified recombinant (human, UniProt Q15532-2 1-387); test: SEC; purified human proteins or fragments run together on a size-exclusion column; coelution, fractions on SDS-PAGE
T1 construct: The MBP-his6 vector is told for the proteins studied in phase separation; also called SS18^(1-387); SS18-WT; source: E. coli BL21(DE3) Codon Plus, purified (Ni-NTA, SEC)
T1 sequence (Q15532 other isoform, or with tags, fused parts or gaps): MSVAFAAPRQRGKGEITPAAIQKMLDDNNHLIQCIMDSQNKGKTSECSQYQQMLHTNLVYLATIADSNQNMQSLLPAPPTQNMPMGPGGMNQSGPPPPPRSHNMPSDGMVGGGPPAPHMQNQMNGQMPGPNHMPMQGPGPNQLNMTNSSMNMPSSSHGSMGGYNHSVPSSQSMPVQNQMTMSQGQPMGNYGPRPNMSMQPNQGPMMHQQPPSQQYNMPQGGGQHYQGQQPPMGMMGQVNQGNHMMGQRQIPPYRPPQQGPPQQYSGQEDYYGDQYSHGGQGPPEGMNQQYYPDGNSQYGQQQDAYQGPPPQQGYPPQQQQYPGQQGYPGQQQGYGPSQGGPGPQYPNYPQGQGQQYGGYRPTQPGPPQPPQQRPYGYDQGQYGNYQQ

SNF11^(38-169) = biological target: T2, SNF11^(38-169) (S. cerevisiae, UniProt P38956 38-169); test: AUC; sedimentation velocity, 4 °C, interference detection, 50 mM MES pH 6.0, 50 mM NaCl, 1 mM EDTA, 1 mM DTT; SEDFIT
T2 construct: Cloned into one of the two multiple cloning sites of pETDuet-1
T2 sequence (looked up): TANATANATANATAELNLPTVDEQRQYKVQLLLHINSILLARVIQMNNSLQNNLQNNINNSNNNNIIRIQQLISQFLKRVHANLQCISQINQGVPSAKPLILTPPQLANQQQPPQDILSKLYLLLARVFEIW

SS18^(14-101) = biological target: T3, SS18^(14-101) (human, UniProt Q15532 14-101); test: as above
T3 construct: SS18, human, residues 14-101, includes the SNH domain; also called SS18 fragment aa 14-101 (includes the SNH domain); source: E. coli BL21(DE3) Codon Plus, purified
T3 sequence (Q15532 14-101): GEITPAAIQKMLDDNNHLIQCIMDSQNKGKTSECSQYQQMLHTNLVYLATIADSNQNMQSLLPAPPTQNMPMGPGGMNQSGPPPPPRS

B1: BRG1^(1-282), N-terminal 282-residue fragment of BRG1 (domain or fragment, human, UniProt P51532 1-282, looked up)
chain: MSTPDPPLGGTPRPGPSPGPGPSPGAMLGPSPGPSPGSAHSMMGPSPGPPSAGHPIPTQGPGGYPQDNMHQMHKPMESMHEKGMSDDPRYNQMKGMGMRSGGHAGMGPPPSPMDQHSQGYPSPLGGSEHASSPVPASGPSSGPQMSSGPGGAPLDGADPQALGQQNRGPTPFNQNQLHQLRAQIMAYKMLARGQPLPDHLQMAVQGKRPMPGMQQQMPTLPPPSVSATGPGPGPGPGPGPGPGPAPPNYSRPHGMGGPNMPPPGPSGVPPGMPGQPPGGPPK
notes: Cloned into a modified pET32a (Trx-his6, N-terminal); the methods describe PreScission cleavage of the Trx-his6 tag in general; Cy3-labelled only for imaging; source: E. coli BL21(DE3) Codon Plus, purified (Ni-NTA, SEC, ion exchange); not shown: Trx, N-terminal, cleaved; His6, N-terminal, cleaved
[1]
  binding result: binds

B2: SNF2^(248-308), 60-residue fragment including the QLQ domain of SNF2 (domain or fragment, S. cerevisiae, UniProt P22082 248-308, looked up)
chain: FTAEQSELLKAQITSLKCLVNRKPIPFEFQAVIQKSINHPPDFKRMLLSLSEFARRRQPTD
notes: Cloned into one of the two multiple cloning sites of pETDuet-1
SNF11^(38-169)
  stoichiometry N: 1

B3: BRG1^(172-213) (domain or fragment, human, UniProt P51532 172-213, looked up)
chain: FNQNQLHQLRAQIMAYKMLARGQPLPDHLQMAVQGKRPMPGM
notes: In the crystal it stood fused to SS18^(14-101) on one chain; source: E. coli BL21(DE3) Codon Plus, purified
SS18^(14-101)
  stoichiometry N: 1
